Measured values reported in publication PMC6048717.

Molecular target: α-synuclein wild-type (UniProt P37840)
Test: seeded fibril elongation kinetics

“α-synuclein C-terminally truncated variant AS(1-119) (from UniProt P37840 1-119) (domain or fragment)” showed an elongation rate constant k+ (monomer addition to AS(WT) seed fibril ends) of 2780 M⁻¹ s⁻¹.
